Data: paper PMC12697983 (PLOS Pathogens, 2025)

Target: SARS-CoV-2 wild-type spike receptor-binding domain (WT-RBD) (SARS-CoV-2, UniProt P0DTC2)
Test: SPR
Settings: both partners purified

B1: 1C4 (murine monoclonal antibody, IgG format) (antibody, V domains shown)
VH: QIQLVQSGPELKKPGETVKISCKASGYTFTDYGLNWVKQAPGKGLKWMGWINTYSGEPTYNDEFRGRFAFSLETSTITAYLKINNLKNEDTATYFCARGGNWDWYFDVWGAGTTVTVSS
VL: DIVLTQSPATLSVTPGDNVSLSCRASQIISNNLHWYQQKSHESPRLLIKYASQSISGIPSRFSGSGSGTDFTLSINSVETEDFGMYFCQQSNTWPLTCGSGTKLELN
  Kd: 0.488 nM
